# Source: patent EP4649952A1 (dated 2025)
# Where a chain is given by its changes, count along the chain named.
# T1: KRAS Q61H peptide on HLA-A*01:01 (human)
# T1 peptide: ILDTAGHEEY
# B1: TCR-1 (TCR, V domains shown)
# Valpha: KVTQAQTEISVVEKEDVTLDCVYETRDTTYYLFWYKQPPSGELVFLIRRNSFDEQNEISGRYSWNFQKSTSSFNFTITASQVVDSAVYFCALSEANQAGTALIFGKGTTLSVSS
# Vbeta: EAQVTQNPRYLITVTGKKLTVTCSQNMNHEYMSWYRQDPGLGLRQIYYSMNVEVTDKGDVPEGYKVSRKEKRNFPLILESPSPNQTSLYFCASSRKVPPVYGYTFGSGTRLTVV
# B2: TCR-3 (TCR, V domains shown)
# Valpha: AQKVTQAQTEISVVEKEDVTLDCVYETRDTTYYLFWYKQPPSGELVFLIRRNSFDEQNEISGRYSWNFQKSTSSFNFTITASQVVDSAVYFCALSEAKAAGNKLTFGGGTRVLVKP
# Vbeta: B1 Vbeta with V97L, V100T
# B3: TCR-2 (TCR, V domains shown)
# Valpha: B1 Valpha
# Vbeta: B1 Vbeta with K96R, V97W, V100T, Y101D, G102T, Y103Q, T104Y, S107P, V114L
# Target: T1, KRAS Q61H peptide on HLA-A*01:01
# Test: cytokine release
row,Binder,binding result
1,B1,recognises
2,B2,recognises
3,B3,recognises
